From patent publication US20220153818A1 (UNIVERSITY COURT OF THE UNIVERSITY OF ABERDEEN, published 2022)

Experiments:
[1] = target: T1, Recombinant Hyr1 N-terminus fragment (amino acids 63-350) with N-terminal 6xHis tag (Candida albicans, UniProt Q5AL03 63-350); test: ELISA, plate coated with recombinant Hyr1 N-terminus, titrated IgG1
T1 sequence: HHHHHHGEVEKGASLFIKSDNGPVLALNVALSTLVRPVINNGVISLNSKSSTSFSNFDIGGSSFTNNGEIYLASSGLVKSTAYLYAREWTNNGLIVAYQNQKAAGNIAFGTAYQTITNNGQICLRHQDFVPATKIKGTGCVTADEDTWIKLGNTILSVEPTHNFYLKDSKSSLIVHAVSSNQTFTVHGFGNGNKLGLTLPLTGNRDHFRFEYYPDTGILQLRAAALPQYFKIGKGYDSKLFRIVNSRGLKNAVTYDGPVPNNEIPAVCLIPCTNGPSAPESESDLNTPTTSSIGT

human serum albumin = target: T2, human serum albumin (human, UniProt P02768 25-609); test: ELISA
T2 construct: also called HSA
T2 sequence (P02768 25-609 limits assumed): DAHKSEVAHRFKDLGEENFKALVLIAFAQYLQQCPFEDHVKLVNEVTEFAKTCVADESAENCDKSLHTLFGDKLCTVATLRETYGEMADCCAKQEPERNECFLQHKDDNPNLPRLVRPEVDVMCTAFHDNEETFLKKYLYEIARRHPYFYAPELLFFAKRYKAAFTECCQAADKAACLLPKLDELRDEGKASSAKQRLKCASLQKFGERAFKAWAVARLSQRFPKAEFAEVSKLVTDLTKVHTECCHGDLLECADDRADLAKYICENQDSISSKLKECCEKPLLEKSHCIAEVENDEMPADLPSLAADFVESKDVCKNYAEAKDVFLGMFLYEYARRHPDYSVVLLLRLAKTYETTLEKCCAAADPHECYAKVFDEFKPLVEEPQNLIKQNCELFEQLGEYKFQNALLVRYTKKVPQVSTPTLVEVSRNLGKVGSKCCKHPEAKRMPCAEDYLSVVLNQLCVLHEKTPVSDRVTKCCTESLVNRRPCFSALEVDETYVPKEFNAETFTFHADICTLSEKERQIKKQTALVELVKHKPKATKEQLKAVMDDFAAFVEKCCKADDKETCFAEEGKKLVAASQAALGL

B1: AB122 (antibody, V domains shown)
VH: EVQLVQSGGGLAQPGRSLRLSCAASGFGFDDFAMHWVRQPPGKGLEWVSGLTWNGGSIDYAGSVRGRFTISRDNAKNSLFLQMNSLRAEDTALYYCAKGLSGGTMAPFDIWGQGTMVSVSS
VL: QAGLTQPPSVSVAPGQTATIPCGGNNIGSKHVHWYQQKPGQAPVAVVYDDSDRPSGVPERFSGSNSGNTATLTISSVEAGDEADYYCQVWDRSSDHFWLFGGGTRLTVL
notes: also called 06-AB-122; anti-Hyr1 mAb AB122
- EC50 [1]: 0.0496 µg/mL
- binding result (human serum albumin): no binding

B2: AB120 (antibody, V domains shown)
VH: EVQLVQSGGGLVQPGGSLGLSCAASGFIFTSYAMTWVRQAPGKGLEWVSVITGNVGTSYYADSVKGRFTISRDNSKKTVSLQMNSLRAEDTAIYYCVKTRYDFSSGYYFDDWGQGTLVSVSS
VL: DIVMTQSPSSVSASVGDKVTITCRASQGISRWLAWYQQKPGEAPELLIYAASSLQSGVPSRFSGSGSGTDFTLTISSLQPEDFATYYCQQANSFPITFGQGTRLQIK
notes: also called 06-AB-120; anti-Hyr1 mAb AB120
- EC50 [1]: 0.104 µg/mL
- binding result (human serum albumin): no binding

B3: AB121 (antibody, V domains shown)
VH: EVQLVESGGTLVQPGGSLRLSCAASGFTFSDYWMNWVRQAPGKGLEWVANIKQDGSEKYYVDSLRGRVTISRDNAQNSVFLQMHSLSVEDTAVYYCARDGYTFGPATTELDHWGRGTLVSVSS
VL: QLVLTQPPSVSVSPGQTASITCSGDELRNKYTSWYQQKSGQSPVLVIYQDNNRPSGIPERFSGSQSGDTATLTISGTQAVDEADYYCQAWVSQTLVFGGGTKLTVL
notes: also called 06-AB-121; anti-Hyr1 mAb AB121
- EC50 [1]: 0.0765 µg/mL
- binding result (human serum albumin): no binding

B4: AB123 (antibody, V domains shown)
VH: EVQLLESGGGVVQPGRSLRLSCAASGFTFSNYGMHWVRQAPGKGLEWVAVVWFDGSYKYYTDSVKGRFTISRDNSKSTLYLQMNSLRAEDTAVYYCVSPIMTSAFDIWGPGTMVSVSS
VL: QLVLTQPPSASGSPGQSVTISCTGTSSDVGGSNFVSWYQHHPGKAPKLMIYEVSQRPSGVPDRFSGSKSGNTASLTVSGLQADDEADYYCSSYAGSVVLFGGGTKLTVL
notes: also called 06-AB-123; anti-Hyr1 mAb AB123
- EC50 [1]: 0.0533 µg/mL
- binding result (human serum albumin): no binding
